Literature values in US12012453B2, “Methods for treating late-stage small cell lung cancer by administering a human anti-PD-L1 antibody, an etoposide and a platinum-based therapeutic” (ASTRAZENECA AB, priority 2019, dated 2024).

How the values were obtained:
Fc receptors = settings: cited from earlier work
human CTLA-4 = human CTLA-4 (Homo sapiens, UniProt P16410); settings: cited from earlier work
[1] = tested on: natural killer (NK) ADCC activity; settings: cited from earlier work
[2] = tested on: PD-L1-mediated suppression of human T-cell activation; settings: in vitro; cited from earlier work
xenograft model = settings: cited from earlier work

Sequence of human CTLA-4 (P16410 36-223): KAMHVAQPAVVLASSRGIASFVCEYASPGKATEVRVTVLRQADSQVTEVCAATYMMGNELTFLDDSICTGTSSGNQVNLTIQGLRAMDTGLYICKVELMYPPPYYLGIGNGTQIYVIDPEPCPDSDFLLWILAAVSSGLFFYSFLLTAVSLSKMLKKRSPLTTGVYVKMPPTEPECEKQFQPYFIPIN

| Molecule | specific binding to Fc receptors (Fc receptors) | cross-reactivity to related human proteins (human CTLA-4) | induction of NK ADCC activity [1] | relief of PD-L1-mediated suppression of human T-cell activation [2] | tumor growth inhibition (xenograft model) |
| --- | --- | --- | --- | --- | --- |
| Tremelimumab: antibody that selectively binds a CTLA-4 polypeptide, as disclosed in U.S. Pat. No. 8,491,895 | minimal specific binding to Fc receptors | no cross-reactivity to related human proteins | does not induce natural killer (NK) antibody-dependent cell-mediated cytotoxicity (ADCC) activity | – | – |
| Durvalumab: human IgG1 monoclonal antibody that selectively binds PD-L1 and blocks binding to PD-1 and CD80; VL SEQ ID NO: 1, VH SEQ ID NO: 2 (antibody, V domains shown) VH: EVQLVESGGGLVQPGGSLRLSCAASGFTFSRYWMSWVRQAPGKGLEWVANIKQDGSEKYYVDSVKGRFTISRDNAKNSLYLQMNSLRAEDTAVYYCAREGGWFGELAFDYWGQGTLVTVSS VL: EIVLTQSPGTLSLSPGERATLSCRASQRVSSSYLAWYQQKPGQAPRLLIYDASSRATGIPDRFSGSGSGTDFTLTISRLEPEDFAVYYCQQYGSLPWTFGQGTKVEIK | – | – | – | can relieve PD-L1-mediated suppression of human T-cell activation in vitro | inhibits tumor growth in a xenograft model via a T-cell dependent mechanism |
